Consider 2 molecules from patent US20230322908A1 (AC IMMUNE, published 2023).

The term koff denotes a measure of how fast the partners let go of each other. One may read the kon as the second-order rate constant of association. One may read the Kd as the concentration at which binding is half-saturated. The term EC50 denotes the concentration at which the effect is half-maximal.

Where no end group is shown, it is not given here. Some results are limits rather than exact numbers.

Assay [1] addresses T1, recombinant human full-length TDP-43 (TAR DNA-binding protein 43), soluble (human, UniProt Q13148 1-414).
T1 construct: Used on Luminex beads, coated on ELISA plates, and immobilized or injected in SPR; also called FL TDP-43; TDP-43 protein
In words: SPR, immobilized soluble TDP-43. An outline of the steps: (§1)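 Biacore SPR with soluble (150 RU) or aggregated (110 RU) full-length TDP-43 amine-coupled to CM5, or biotinylated TP-73 peptide captured on SA chip (400 RU). Antibodies injected (optimized: 3-fold series 300 to 1.2 nM, 300 s association, 600 s dissociation); glycine pH 1.7 regeneration; double-referenced, KD from global 1:1 fit.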

Assay [2] concerns the target T1, recombinant human full-length TDP-43 …. In words: SPR, mAb captured, FL TDP-43 injected; mean. The procedure:
Binding affinity to soluble FL TDP-43 was evaluated by determing the dissociation constants (KD) using surface plasmon resonance (SPR; Biacore T200, GE Healthcare Life Sciences). Goat-anti mouse capture antibody was immobilized on a CM5 Series S sensor chip (GE Healthcare Life Sciences) by amine coupling. Antibodies were captured at a concentration of 2-5 µg/ml in PBS-P⁺ (GE Healthcare Life Sciences) with a flow rate of 10 µl/min for 120 seconds resulting in a capture level of 350-1000 RU. […] Dissociation was recorded for 1 h followed by one regeneration with 10 mM glycine-HCl pH 1.7. Results obtained from binding kinetics were double-referenced using a blank flow cell and a buffer cycle and were evaluated with a global 1:1 fitting model with RI.
A general note: Surface plasmon resonance follows binding to a sensor surface in real time, without labels.

Assay [3] has as its target T2, recombinant human aggregated full-length TDP-43 (human, UniProt Q13148 1-414).
T2 construct: also called aggregated TDP-43; aggregated FL TDP-43
In words: SPR, immobilized aggregated TDP-43. Put shortly: as §1

In assay [4] the target is T3, TP-51 peptide (aa 352-414 of SEQ ID NO:1) (human).
T3 construct: Synthetic peptide (Pepscan)
T3 peptide: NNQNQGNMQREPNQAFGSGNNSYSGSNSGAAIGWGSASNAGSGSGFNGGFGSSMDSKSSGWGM
Description: SPR, mAb captured, TP-51 injected.

In assay [5] the target is T3, TP-51 peptide (aa 352-414 of SEQ ID …). In words: SPR, mAb captured, TP-51 injected; mean.
The target in assay [6] is T1, recombinant human full-length TDP-43 …. In words: Luminex, FL TDP-43 on beads. Here is the method: Mice were euthanized and fusion with myeloma cells was performed using splenocytes from four individual mice. Screening for antibodies from the successfully fused hybridoma cell lines were performed as follows. Diluted (1:32) cell culture supernatants were analyzed using Luminex bead-based multiplex assay (Luminex, The Netherlands). Luminex beads were conjugated to FL TDP-43 and with capturing IgGs with anti-mouse IgG-Fc antibodies specific for the IgG1, IgG2a, IgG2b, IgG2c, and IgG3 subclasses (Jackson Immunoresearch, USA). Binding to beads conjugated to FL TDP-43 identified 386 hits derived from mice immunized with the FL TDP-43 liposomal vaccine.
Luminex assays with serial dilution of antibodies were performed as described before to determine half maximal effective concentration (EC50) of binding of antibodies to FL TDP-43. In summary, all tested antibodies bind to full length TDP-43 with high affinity.

Assay [7] shares this target. Description: indirect ELISA, coated FL TDP-43. The procedure: Antibody binding to human FL TDP-43 was determined using an indirect ELISA. ELISA plate coating with 1 µg/ml human FL TDP-43 was performed overnight in carbonate buffer at 4° C. Plates were washed with 0.05% Tween-20/PBS and then blocked with 1% bovine serum albumin (BSA) in 0.05% Tween-20/PBS for 1 hour at 37° C. Antibodies purified from hybridoma supernatants were then added in a 3-fold serial dilution starting at 1 µg/ml, and incubated for 2 hours at 37° C. after which the plates were washed. An AP-conjugated anti-mouse IgG secondary antibody (Jackson Immunoresearch Laboratories, United Kingdom) was added at 1/1000 dilution in 0.05% Tween-20/PBS for 1 hour at 37° C. After the final wash, plates were incubated with pNPP (Sigma-Aldrich, Switzerland) phosphatase substrate solution, and read at 405 nm using an ELISA plate reader (Tecan, Switzerland).
On the technique in general: In an ELISA, binding on a coated surface is turned into a signal by an enzyme label.

Assay [8] has the same target. In words: SPR, immobilized soluble TDP-43; whole hybridoma antibody, first SPR protocol (90 s contact); soluble TDP-43 on the chip.
Assay [9] concerns the target T4, Biotinylated TP-73 peptide (aa 181-190 of SEQ ID NO:1) (human, also: biotinylated (position not given here)).
T4 construct: Immobilized on a streptavidin (SA) sensor chip
T4 peptide: KQSQDEPLRS
Description: SPR, biotinylated TP-73 on SA chip. The procedure:
Binding avidity to soluble or aggregated FL TDP-43 was evaluated by determing the dissociation constants (KD) using surface plasmon resonance (SPR; Biacore T200, GE Healthcare Life Sciences). Recombinant human soluble or aggregated FL TDP-43 were immobilized on a CM5 Series S sensor chip (GE Healthcare Life Sciences) by amine coupling. Soluble TDP-43 was immobilized at a concentration of 5 µg/ml in 10 mM sodium acetate (pH 4.5) with a flow rate of 5 µl/min for 420 seconds resulting in an immobilization level of 150 RU. Aggregated TDP-43 was immobilized at a concentration of 50 µg/ml in 10 mM sodium acetate (pH 4.5) with a flow rate of 5 µl/min for 840 seconds resulting in an immobilization level of 110 RU. Biotinylated TP-73 peptide (aa 181-190 of SEQ ID NO:1) was immobilized on a Series S Sensor Chip SA (GE Healthcare Life Sciences) at a concentration of 5 µg/ml in PBS-P⁺ with a flow rate of 5 µl/min for 30 seconds resulting in an immobilization level of 400 RU. […] The antibodies were injected at a flow rate of 50 µl/min for 90 seconds contact time and 700 seconds dissociation phase followed by three regenerations with 10 mM glycine-HCl pH 1.7. […] Results obtained from binding kinetics were double-referenced using a blank flow cell and a buffer cycle and were evaluated with a global 1:1 fitting model with RI. […]

T2 sequence (Q13148 whole entry): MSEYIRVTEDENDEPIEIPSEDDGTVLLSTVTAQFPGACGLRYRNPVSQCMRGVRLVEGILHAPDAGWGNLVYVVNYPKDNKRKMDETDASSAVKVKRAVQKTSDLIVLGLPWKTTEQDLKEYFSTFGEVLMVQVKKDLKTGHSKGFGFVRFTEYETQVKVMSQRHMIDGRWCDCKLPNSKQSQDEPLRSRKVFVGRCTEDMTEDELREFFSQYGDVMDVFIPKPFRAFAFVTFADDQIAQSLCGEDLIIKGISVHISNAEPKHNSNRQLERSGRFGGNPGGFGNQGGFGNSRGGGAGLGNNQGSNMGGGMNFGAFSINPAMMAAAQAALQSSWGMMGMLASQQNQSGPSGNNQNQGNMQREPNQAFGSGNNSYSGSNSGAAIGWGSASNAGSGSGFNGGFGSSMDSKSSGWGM
T1 sequence (Q13148 whole entry): as above

B1: ACI-7069-633B12-Ab1 (antibody, mouse IgG2b, V domains shown)
VH: EVQLQQSGPELVKPGASVKISCKTSGFTFTEYSMHWVKQSHGKSLEWIGGINPNNGGTSYNQKFKGKATLTVDKSSSTAYMELRSLTSEDSAVYYCARESWGQGTTLTVSS
VL: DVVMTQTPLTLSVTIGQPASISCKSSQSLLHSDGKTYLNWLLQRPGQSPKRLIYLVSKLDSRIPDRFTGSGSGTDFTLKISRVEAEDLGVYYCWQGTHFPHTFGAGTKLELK
notes: Mouse IgG2b, kappa, from hybridoma; also called 633B12C8
As for B1, the dissociation rate constant (koff) in [1] stood at 0.000319 s⁻¹; in assay [2], 3.45e-06 s⁻¹; in assay [3], 5.01e-05 s⁻¹; in [5], 0.000138 s⁻¹. Further, the kon in assay [1] turned out to be 873 M⁻¹ s⁻¹; in assay [2], 43900 M⁻¹ s⁻¹; in [3] it was 82100 M⁻¹ s⁻¹; in assay [5] it was 110000 M⁻¹ s⁻¹. For the same molecule, the Kd in assay [2] is 0.075 nM; in [3], 0.62 nM; in assay [4], 1.18 to 1.32 nM; in [5], 1.25 nM; in assay [8] it was 365 nM. For the same molecule, the EC50 is under 0.01 nM in assay [6] and 0.032 µg/mL in assay [7].

B2: ACI-7069-642D12-Ab1 (antibody, mouse IgG2b, V domains shown)
VH: EVQLQQSGAELVKPGASVRLSCTASGFNIKDPYMHWVRQRPKQGLEWIGRIDPADGNTKYDPKFQGKATLTADTSSNVAYLHLSSLTSEDTAVYYCARFYGSSHWYFDVWGAGTTVTVSS
VL: DIKMTQSPSSMYASLGERVTITCKASQDIKRYLSWYQQKPWKSPKILIYYATSLADGVPSRFSGTGSGQDYSLTISSLESDDVATYYCLQQGESPYTFGGGTKLEIK
notes: Mouse IgG2b, kappa, from hybridoma; also called 642D12B4
Consider B2, for which the Kd in assay [1] is 5.28 nM; in [2], 0.249 nM; in assay [3] it was 0.88 nM; in assay [9], 3.6 nM. The koff in assay [1] was found to be 0.000838 s⁻¹; in assay [2] it was 2.76e-05 s⁻¹; in assay [3] it was 0.000131 s⁻¹. The figures for the on-rate (kon) in assay [1], in [2] and in [3] were 159000 M⁻¹ s⁻¹, 110000 M⁻¹ s⁻¹ and 148000 M⁻¹ s⁻¹, respectively. Moreover, the half-maximal effective concentration (EC50) in [6] is under 0.01 nM; in [7], 0.014 µg/mL.
